Experimental data reported in publication PMC4134136 (PLoS ONE, 2014).

Biological target: the molecule itself
Experiment: crystal structure; NOD1 CARD and Ub mixed 1:1, 1 mM each, in GF buffer (25 mM sodium phosphate, 25 mM NaCl, 5 mM DTT, pH 7.0); hanging drop, 100 mM PCB, 25% PEG 1500, pH 9.0 (crystals formed at pH ~8.6); 2.90 Å

B1: Caspase Recruitment Domain (CARD) of human NOD1, residues serine 16 to glycine 108 (domain or fragment)
chain: SHPHIQLLKSNRELLVTHIRNTQCLVDNLLKNDYFSAEDAEIVCACPTQPDKVRKILDLVQSKGEEVSEFFLYLLQQLADAYVDLRPWLLEIGLE
modifications: dimethyl-arsenic adduct on the sulfhydryl of Cys59 (formed in the crystallization buffer with cacodylate and DTT)
notes: NOD1, human, CARD, residues serine 16 to glycine 108; leucine and glutamic acid inserted between glycine 108 and the 6xHis-tag, from an XhoI restriction site; Purified as a monomer (gel filtration removed residual dimer); in the crystal a homodimer with swapped sixth helices; also called NOD1 CARD; CARD A
binding result: binds
